In US20090047356A1 (published 2009):

How the values were obtained:
coagulation factor VIIa [1] = biological target: T1, coagulation factor VIIa (UniProt P08709 61-466, Gla (gamma-carboxyglutamate) domain mentioned; positions not given); test: listed in Table 2 of binding constants for TF:VIIa complexes; method for this row not stated
T1 construct: also called FVIIa
T1 sequence (looked up): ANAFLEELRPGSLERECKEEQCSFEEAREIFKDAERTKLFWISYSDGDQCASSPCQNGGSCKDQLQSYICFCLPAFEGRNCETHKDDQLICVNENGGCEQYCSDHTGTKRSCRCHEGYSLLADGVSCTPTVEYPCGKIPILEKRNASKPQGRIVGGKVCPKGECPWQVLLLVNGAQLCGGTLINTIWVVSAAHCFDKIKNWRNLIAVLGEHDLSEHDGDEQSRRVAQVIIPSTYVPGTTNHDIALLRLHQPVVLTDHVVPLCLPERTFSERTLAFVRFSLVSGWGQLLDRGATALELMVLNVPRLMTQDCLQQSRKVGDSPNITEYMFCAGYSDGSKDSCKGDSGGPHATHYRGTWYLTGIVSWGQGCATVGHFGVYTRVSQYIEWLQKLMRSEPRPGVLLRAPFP

[2] = biological target: coagulation factor X, P00742
Sequence of coagulation factor X, P00742 (P00742 whole entry, looked up): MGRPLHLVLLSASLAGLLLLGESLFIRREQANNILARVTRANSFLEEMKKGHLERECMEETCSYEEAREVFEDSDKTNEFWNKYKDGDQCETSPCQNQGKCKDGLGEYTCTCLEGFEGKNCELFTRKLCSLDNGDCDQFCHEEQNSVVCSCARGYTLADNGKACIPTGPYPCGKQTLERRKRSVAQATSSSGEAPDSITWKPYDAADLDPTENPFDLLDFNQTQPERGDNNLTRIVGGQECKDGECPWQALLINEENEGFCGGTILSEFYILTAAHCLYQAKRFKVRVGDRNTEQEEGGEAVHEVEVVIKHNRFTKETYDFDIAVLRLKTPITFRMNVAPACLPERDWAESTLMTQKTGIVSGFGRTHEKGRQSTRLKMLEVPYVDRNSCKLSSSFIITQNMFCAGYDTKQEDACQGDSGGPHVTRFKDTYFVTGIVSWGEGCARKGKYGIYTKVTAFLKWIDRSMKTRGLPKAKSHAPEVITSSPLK

coagulation factor VIIa [3] = biological target: T1, coagulation factor VIIa; test: TF-dependent enhancement of factor VIIa enzymatic activity as readout for complex formation
coagulation factor VIIa [4] = biological target: T1, coagulation factor VIIa; test: apparent Kd; TF-dependent enhancement of factor VIIa enzymatic activity as readout for complex formation
coagulation factor X = biological target: T2, coagulation factor X (UniProt P00742 41-488, Gla (gamma-carboxyglutamate) domain mentioned; positions not given); test: SPR (Biacore 3000), Nanodiscs immobilized on NTA chip via His tag of MSP1, factor X flowed over
T2 construct: Substrate of the TF:VIIa complex
T2 sequence (P00742 41-488 limits assumed): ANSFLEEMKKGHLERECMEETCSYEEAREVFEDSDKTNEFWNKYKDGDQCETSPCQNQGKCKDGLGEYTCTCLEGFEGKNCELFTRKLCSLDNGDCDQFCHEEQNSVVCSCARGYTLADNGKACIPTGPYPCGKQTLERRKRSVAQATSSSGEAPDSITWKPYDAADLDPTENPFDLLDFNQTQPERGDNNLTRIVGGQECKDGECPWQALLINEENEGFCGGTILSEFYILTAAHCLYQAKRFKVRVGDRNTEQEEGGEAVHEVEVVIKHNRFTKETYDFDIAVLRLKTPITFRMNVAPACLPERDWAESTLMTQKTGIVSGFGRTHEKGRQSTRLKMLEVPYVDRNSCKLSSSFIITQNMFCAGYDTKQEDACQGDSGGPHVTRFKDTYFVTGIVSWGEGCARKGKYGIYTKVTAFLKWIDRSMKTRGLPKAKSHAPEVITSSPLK

B1: soluble tissue factor (extracellular domain of TF) (receptor, UniProt P13726 33-251, looked up)
chain: SGTTNTVAAYNLTWKSTNFKTILEWEPKPVNQVYTVQISTKSGDWKSKCFYTTDTECDLTDEIVKDVKQTYLARVFSYPAGNVESTGSAGEPLYENSPEFTPYLETNLGQPTIQSFEQVGTKVNVTVEDERTLVRRNNTFLSLRDVFGKDLIYTLYYWKSSSSGKKTAKTNTNEFLIDVDKGENYCFSVQAVIPSRTVNRKSTDSPVECMGQEKGEFRE
notes: extracellular domain; also called sTF
- Kd (coagulation factor VIIa [1]): ~3 nM

B2: rTF:VIIa complex on PCPS vesicles (TF-liposomes, 20% PS, 80% PC) (protein)
chain 1: AEDQVDPRLIDGKSGTTNTVAAYNLTWKSTNFKTILEWEPKPVNQVYTVQISTKSGDWKSKCFYTTDTECDLTDEIVKDVKQTYLARVFSYPAGNVESTGSAGEPLYENSPEFTPYLETNLGQPTIQSFEQVGTKVNVTVEDERTLVRRNNTFLSLRDVFGKDLIYTLYYWKSSSSGKKTAKTNTNEFLIDVDKGENYCFSVQAVIPSRTVNRKSTDSPVECMGQEKGEFREIFYIIGAVVFVVIILVIILAISLHK
chain 2: T1 sequence (looked up)
- Km (factor X activation by TF:VIIa) [2]: 0.0202 µM
- Km, app (factor X activation by rTF:VIIa) [2]: 0.0202 µM

B3: TF:VIIa complex on TF-Nanodiscs 30% PS, 70% PC (protein)
chain 1: B2 chain 1
chain 2: T1 sequence (looked up)
chain 3: MGHHHHHHIEGRLKLLDNWDSVTSTFSKLREQLGPVTQEFWDNLEKETEGLRQEMSKDLEEVKAKVQPYLDDFQKKWQEEMELYRQKVEPLRAELQEGARQKLHELQEKLSPLGEEMRDRARAHVDALRTHLAPYSDELRQRLAARLEALKENGGARLAEYHAKATEHLSTLSEKAKPALEDLRQGLLPVLESFKVSFLSALEEYTKKLNTQ
- Km (factor X activation by TF:VIIa) [2]: 0.0452 µM

B4: rTF:VIIa complex on rTF-PCPS-nanoscale discs (TF-Nanodiscs 20% PS, 80% PC) (protein)
chain 1: B2 chain 1
chain 2: T1 sequence (looked up)
chain 3: B3 chain 3
- Km (factor X activation by TF:VIIa) [2]: 0.0686 µM
- Km, app (factor X activation by rTF:VIIa) [2]: 0.0686 µM

B5: rTF in PCPS vesicles (20 mol % PS, 80 mol % PC; PL:rTF 8700:1) (receptor)
chain: B2 chain 1
notes: Recombinant truncated human tissue factor from E. coli (not glycosylated), reconstituted into PCPS liposomes by the Bio-Bead method; also called TF-liposomes; rTF in phospholipid vesicles
- Kd (coagulation factor VIIa [3]): 0.0264 nM
- Kd (coagulation factor VIIa [4]): 0.0264 nM

B6: TF:VIIa complex on TF-Nanodiscs 10% PS, 90% PC (protein)
chain 1: B2 chain 1
chain 2: T1 sequence (looked up)
chain 3: B3 chain 3
- Km (factor X activation by TF:VIIa) [2]: 0.132 µM

B7: Nanodiscs containing 100% POPC (no TF) (other)
chain: B3 chain 3
notes: Control discs immobilized on an NTA Biacore chip; Their only protein is MSP1; also called POPC Nanodiscs
- binding result (coagulation factor X): no binding (tested: 1 µM)
